Test results as given in article PMC3351833 (Biochemical Journal, 2011).
acyl = not defined here

Biological target: calmodulin (recombinant rat CaM) (rat, UniProt P0DP29 2-149)
Assay: NMR titration

Binder: acyl-SSKGTKKFRLEGTLLRTYVCHIIFKT-NH2 (reading uncertain) [Cx50p^141–166 (connexin50 CaM-binding domain peptide, residues 141–166)]
- stoichiometry N: 1
